Results from the RNAGym collection of RNA variant scans (doi:10.7554/elife.80360).

B1: HDV Ribozyme (parent)
chain: GGCCGGCAUGGUCCCAGCCUCCUCGCUGGCGCCGGCUGGGCAACAUUCCGAGGGGACCGUCCCCUCGGUAAUGGCGAAUGGGACCCA

Variants of: B1
Test: self-cleavage, relative activity (ratio to wild type); higher = more cleavage; co-transcriptional

Variant	self-cleavage
A71U C86G	0.752
U72A G76U	0.863
U72A G76C	0.65
A71U A83G	0.677
A71U A83C	0.391
U69A U79G	0.831
U69A U79C	0.499
U69C A83G	0.755
U69C A83U	0.431
U69C C75G	0.213
U69C C75A	0.0536
U69C G74U	0.575
U69C G74A	0.554
U72A G73A	0.617
U72A G73U	0.612
A70C A77G	0.808
A70C A77C	0.244
A70U C75A	0.0898
A70U C75U	0.219
A70U C75G	0.231
A70C U79A	0.72
A70C U79G	0.554
A71C U79A	0.529
A71C U79G	0.437

Variant	self-cleavage
U69G G74C	0.383
U69G C75U	0.0615
U69G G82A	0.453
A71U G73A	0.432
U69C G80U	0.0898
A70G U72C	0.54
A70U A78U	0.404
A70U A78G	0.7
U72A C85U	0.764
U72A C85G	0.831
U72A C85A	0.399
A70C G82A	0.181
A70C G82C	0
U72A A78U	0.161
U72A A78G	0.504
G73C G80U	0.141
U72G G82A	0.0978
G73C A87U	0.626
G73A G74C	0.176
G73A G74U	0.174
G73A G74A	0.248
A70C G73C	0.514
A70C G73U	0.302
A70C G73A	0.407

Variant	self-cleavage
A70C U72G	0.185
A70C U72A	0.653
A70U G73A	0.614
A70U G73U	0.169
U69G G76A	0.855
A71G G76U	1.1
U72C C84U	0.284
A71U C75U	0.218
A70G C84A	0.853
U72A G80C	0.219
U72A G80A	0.169
G73A C84U	0.665
A70U G80C	0.213
A70U G80A	0.445
U69C A78C	0.322
A70U A87U	1.2
A70U A87G	1.02
G73A C86U	0.831
G73A C86G	0.609
U72C G81A	0.356
U72C G81C	0.271
U69G C85A	1.18
U69G C85G	1.01
A71U C84U	0.475

Variant	self-cleavage
A71U C84A	0.862
A71U C84G	0.481
U69C C86G	1.05
U69C C86U	0.727
U69C C86A	0.906
A70C G76C	0.796
A70C G76A	0.96
U72G G76A	0.743
G73C C75A	0.173
G73C C75G	0.0573
A71U G76C	0.914
A71U G76A	0.932
A70C G74C	0.262
A70C G74A	0.308
A71U	0.93
A71C	0.84
A71G	0.957
A71C G74A	0.453
A71C G74C	0.128
A71C C86A	0.831
A71C C86U	0.665
U72G C86U	0.705
U69A G81C	0.325
U72C C75U	0.192

Variant	self-cleavage
U72C C75A	0.256
G73A C75A	0.246
A71U U79A	0.782
A71U U79C	0.314
G73C G74C	0.133
A71U G82U	0.248
A71U G82C	0.135
G73A A87G	0.697
G73A A87U	0.803
U72G A77U	0.185
G73A A83U	0.323
A70U C86G	0.872
A70U C86A	1.02
A70U C86U	1.07
U69G G73C	0.665
U69G G73A	0.746
A71G A83G	1.09
A71C C75U	0.199
A71C C75A	0.0852
A71C C75G	0.131
U72A G82C	0.208
A71G A87U	0.95
A71G A87G	1.06
A71G G73A	0.689

Variant	self-cleavage
U72G C84A	0.6
U72G C84G	0.214
A70U C84U	0.627
U72G C75U	0.0415
U72G C75A	0.0665
U72G C75G	0.262
U69G A83U	0.465
U69G A83C	0.554
A71U G74C	0.244
U72C C85G	0.453
U72C C85A	0.633
G73A G81A	0.176
G73A G76U	0.906
U69A G80C	0.38
U69A G80U	0.141
A70G G82C	0.259
A70G G82A	0.394
G73A C85U	0.73
G73A C85A	0.882
U69C A77C	0.612
U69C A77U	0.598
A70C A83C	0.434
A70C A83G	0.543
U69G U79A	0.935

Variant	self-cleavage
A71C G81C	0.172
A71C G81A	0.309
A71C G73C	0.378
A71C G73U	0.141
A71U A78U	0.185
A70G G81U	0.0978
A70G G81A	0.378
U72A G81U	0.166
U72A G81C	0.0898
U72A G81A	0.113
U69C U79C	0.404
U69C U79G	1.16
U69C A70G	0.889
U72G A78U	0.356
A70U U79A	0.831
A70U U79C	0.277
A70U C85G	0.724
U72G A83U	0.166
U72G A83G	0.58
U72C G80U	0.0791
A70G A83G	0.692
A70G A83U	0.511
U72C A78C	0.229
